Measured values reported in article PMC3605776.

T1: KSRP KH3 (Homo sapiens, UniProt Q92945 322-386)
T1 sequence: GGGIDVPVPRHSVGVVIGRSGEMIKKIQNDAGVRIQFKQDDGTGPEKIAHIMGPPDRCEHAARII

T2: KSRP KH1-KH4 (referred to as KSRP) (Homo sapiens, UniProt Q92945 68-525)
T2 sequence: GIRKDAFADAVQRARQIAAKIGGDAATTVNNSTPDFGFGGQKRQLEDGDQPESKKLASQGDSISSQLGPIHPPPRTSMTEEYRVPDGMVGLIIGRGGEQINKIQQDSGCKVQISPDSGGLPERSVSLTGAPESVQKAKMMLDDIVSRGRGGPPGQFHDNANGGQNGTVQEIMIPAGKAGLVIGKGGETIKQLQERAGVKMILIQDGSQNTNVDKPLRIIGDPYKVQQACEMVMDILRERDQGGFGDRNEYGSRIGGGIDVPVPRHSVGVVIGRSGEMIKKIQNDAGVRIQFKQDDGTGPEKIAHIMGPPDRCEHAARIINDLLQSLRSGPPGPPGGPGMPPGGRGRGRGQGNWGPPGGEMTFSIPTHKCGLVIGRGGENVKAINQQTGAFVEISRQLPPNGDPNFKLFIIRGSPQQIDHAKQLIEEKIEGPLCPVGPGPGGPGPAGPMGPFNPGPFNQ


Experiments:
KSRP KH3 [1] = biological target: T1, KSRP KH3; test: NMR titration
KSRP KH3 [2] = biological target: T1, KSRP KH3; test: NMR structure, NMR titration, ITC
[3] = biological target: T2, KSRP KH1-KH4 (referred to as KSRP); test: NMR 13C-1H

| Binder | binding result (KSRP KH3 [1]) | binding result (KSRP KH3 [2]) | binding result [3] |
| --- | --- | --- | --- |
| AGUGU (ssRNA) [AGGGU G3U] | binds | – | – |
| AGAGU (ssRNA) [AGGGU G3A] | binds | – | – |
| AGGGU (ssRNA) | – | binds | binds |
